T1: ATP phosphoribosyltransferase (HisG) (Corynebacterium glutamicum, UniProt Q9Z472)
T1 construct: made in house; host or cells: Corynebacterium glutamicum ATCC 13032 (wild type) and HCJ-96, -161, -162, -163, -164, -165 (chromosomal hisG alleles); unpurified supernatant of sonicated cells
T1 sequence (Q9Z472 whole entry, looked up): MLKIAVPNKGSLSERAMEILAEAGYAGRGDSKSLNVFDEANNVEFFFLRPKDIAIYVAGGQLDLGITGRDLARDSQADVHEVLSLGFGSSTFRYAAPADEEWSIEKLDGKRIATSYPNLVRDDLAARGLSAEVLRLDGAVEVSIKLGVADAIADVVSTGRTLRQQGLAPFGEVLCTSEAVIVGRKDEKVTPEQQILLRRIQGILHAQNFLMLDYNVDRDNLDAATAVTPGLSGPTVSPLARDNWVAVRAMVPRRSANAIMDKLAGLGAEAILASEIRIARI

B1: HisG (N215R/G233H/T235Q): ATP phosphoribosyltransferase variant N215R/G233H/T235Q, SEQ ID NO: 1 (protein)
chain: MLKIAVPNKGSLSERAMEILAEAGYAGRGDSKSLNVFDEANNVEFFFLRPKDIAIYVAGGQLDLGITGRDLARDSQADVHEVLSLGFGSSTFRYAAPADEEWSIEKLDGKRIATSYPNLVRDDLAARGLSAEVLRLDGAVEVSIKLGVADAIADVVSTGRTLRQQGLAPFGEVLCTSEAVIVGRKDEKVTPEQQILLRRIQGILHAQNFLMLDYRVDRDNLDAATAVTPGLSHPQVSPLARDNWVAVRAMVPRRSANAIMDKLAGLGAEAILASEIRIARI
modifications: HisG
B2: HisG: wild-type Corynebacterium glutamicum ATP phosphoribosyltransferase, SEQ ID NO: 13 (protein)
chain: MLKIAVPNKGSLSERAMEILAEAGYAGRGDSKSLNVFDEANNVEFFFLRPKDIAIYVAGGQLDLGITGRDLARDSQADVHEVLSLGFGSSTFRYAAPADEEWSIEKLDGKRIATSYPNLVRDDLAARGLSAEVLRLDGAVEVSIKLGVADAIADVVSTGRTLRQQGLAPFGEVLCTSEAVIVGRKDEKVTPEQQILLRRIQGILHAQNFLMLDYNVDRDNLDAATAVTPGLSGPTVSPLARDNWVAVRAMVPRRSANAIMDKLAGLGAEAILASEIRIARI
modifications: HisG
B3: HisG (G233H/T235Q): ATP phosphoribosyltransferase variant with G233H and T235Q substitutions (protein)
chain: MLKIAVPNKGSLSERAMEILAEAGYAGRGDSKSLNVFDEANNVEFFFLRPKDIAIYVAGGQLDLGITGRDLARDSQADVHEVLSLGFGSSTFRYAAPADEEWSIEKLDGKRIATSYPNLVRDDLAARGLSAEVLRLDGAVEVSIKLGVADAIADVVSTGRTLRQQGLAPFGEVLCTSEAVIVGRKDEKVTPEQQILLRRIQGILHAQNFLMLDYNVDRDNLDAATAVTPGLSHPQVSPLARDNWVAVRAMVPRRSANAIMDKLAGLGAEAILASEIRIARI
B4: HisG (N215K/G233H/T235Q): ATP phosphoribosyltransferase variant N215K/G233H/T235Q (protein)
chain: MLKIAVPNKGSLSERAMEILAEAGYAGRGDSKSLNVFDEANNVEFFFLRPKDIAIYVAGGQLDLGITGRDLARDSQADVHEVLSLGFGSSTFRYAAPADEEWSIEKLDGKRIATSYPNLVRDDLAARGLSAEVLRLDGAVEVSIKLGVADAIADVVSTGRTLRQQGLAPFGEVLCTSEAVIVGRKDEKVTPEQQILLRRIQGILHAQNFLMLDYKVDRDNLDAATAVTPGLSHPQVSPLARDNWVAVRAMVPRRSANAIMDKLAGLGAEAILASEIRIARI
B5: HisG (N215R): ATP phosphoribosyltransferase variant with N215R substitution (protein)
chain: MLKIAVPNKGSLSERAMEILAEAGYAGRGDSKSLNVFDEANNVEFFFLRPKDIAIYVAGGQLDLGITGRDLARDSQADVHEVLSLGFGSSTFRYAAPADEEWSIEKLDGKRIATSYPNLVRDDLAARGLSAEVLRLDGAVEVSIKLGVADAIADVVSTGRTLRQQGLAPFGEVLCTSEAVIVGRKDEKVTPEQQILLRRIQGILHAQNFLMLDYRVDRDNLDAATAVTPGLSGPTVSPLARDNWVAVRAMVPRRSANAIMDKLAGLGAEAILASEIRIARI
B6: HisG (N215R/L231F/T235A): ATP phosphoribosyltransferase variant N215R/L231F/T235A (protein)
chain: MLKIAVPNKGSLSERAMEILAEAGYAGRGDSKSLNVFDEANNVEFFFLRPKDIAIYVAGGQLDLGITGRDLARDSQADVHEVLSLGFGSSTFRYAAPADEEWSIEKLDGKRIATSYPNLVRDDLAARGLSAEVLRLDGAVEVSIKLGVADAIADVVSTGRTLRQQGLAPFGEVLCTSEAVIVGRKDEKVTPEQQILLRRIQGILHAQNFLMLDYRVDRDNLDAATAVTPGFSGPAVSPLARDNWVAVRAMVPRRSANAIMDKLAGLGAEAILASEIRIARI
B7: HisG (N215K/L231F/T235A): known HisG variant N215K/L231F/T235A (Biochimie. 2012 March; 94(3):829-38) (protein)
chain: MLKIAVPNKGSLSERAMEILAEAGYAGRGDSKSLNVFDEANNVEFFFLRPKDIAIYVAGGQLDLGITGRDLARDSQADVHEVLSLGFGSSTFRYAAPADEEWSIEKLDGKRIATSYPNLVRDDLAARGLSAEVLRLDGAVEVSIKLGVADAIADVVSTGRTLRQQGLAPFGEVLCTSEAVIVGRKDEKVTPEQQILLRRIQGILHAQNFLMLDYKVDRDNLDAATAVTPGFSGPAVSPLARDNWVAVRAMVPRRSANAIMDKLAGLGAEAILASEIRIARI

Tests used:
[1] = test system: ATP phosphoribosyltransferase (HisG); assay: Measurement of activities of ATP phosphoribosyltransferases (UV 290 nm, cell supernatant); assay type: biochemical, Corynebacterium glutamicum; details: for Activity of ATP phosphoribosyltransferase (HisG): 30° C., UV 290 nm, no L-histidine
Procedure: Corynebacterium glutamicum ATCC 13032 and the strains HCJ-96, HCJ-161, HCJ-162, HCJ-163, HCJ-164, and HCJ-165 selected in Example 3 were each inoculated into a corner-baffle flask (250 mL) containing a seed medium (25 mL), and were cultured at 30° C. for 20 hours with shaking at 200 rpm to obtain a seed culture solution. Thereafter, the seed culture solution (1 mL) was inoculated into a corner-baffle flask (250 mL) containing a production medium (24 mL), and was cultured at 30° C. for 45 hours at 200 rpm. After the culture, the obtained cells were sonicated and centrifuged, and the supernatant obtained therefrom was used for evaluation of the activity of ATP phosphoribosyltransferase.
The activities of the ATP phosphoribosyltransferase variants obtained in Example 4-1 and that of a wild-type ATP phosphoribosyltransferase variant were measured. The evaluation of the activities of these enzymes was performed with reference to the conditions described in an existing literature report (Biochimie. 2012 March; 94(3):829-38.).
For the evaluation of the activities of the enzymes, the supernatant was quantified to give the same concentration. These enzymes were used as sample enzymes, and the reaction conditions were as follows: the reaction compositions were mixed to the quantified protein (0.05 mg) to give a total amount of 500 μL, and then measured at 30° C. at a UV wavelength of 290 nm for 90 seconds. With regard to the wild-type ATP phosphoribosyltransferase having low activity, the supernatant protein (0.3 mg) was used and measured at a UV wavelength of 290 nm for 30 minutes for the activity evaluation. The composition of the reaction solution for measuring the activities of the enzymes is as follows: […]

[2] = target: T2, ATP phosphoribosyltransferase (HisG) (Corynebacterium glutamicum, UniProt Q9Z472, G233H/N215R/T235Q); assay: Degree of inhibition by L-histidine on activities of ATP phosphoribosyltransferase variants; assay type: biochemical; details: L-histidine 100 mM
T2 construct: made in house; host or cells: Corynebacterium glutamicum ATCC 13032 (wild type) and HCJ-96, -161, -162, -163, -164, -165 (chromosomal hisG alleles); unpurified supernatant of sonicated cells
Procedure: (§1) For the evaluation of the activities of the enzymes, the supernatant was quantified to give the same concentration. These enzymes were used as sample enzymes, and the reaction conditions were as follows: the reaction compositions were mixed to the quantified protein (0.05 mg) to give a total amount of 500 μL, and then measured at 30° C. at a UV wavelength of 290 nm for 90 seconds. With regard to the wild-type ATP phosphoribosyltransferase having low activity, the supernatant protein (0.3 mg) was used and measured at a UV wavelength of 290 nm for 30 minutes for the activity evaluation. The composition of the reaction solution for measuring the activities of the enzymes is as follows:
(§2) The degree of inhibition by L-histidine on the activities of ATP phosphoribosyltransferase and the ATP phosphoribosyltransferase variants obtained in Example 4-1 was measured. Specifically, the activities of these enzymes were measured in the reaction composition solution of Example 4-2, which contained L-histidine (0 mM, 50 mM, or 100 mM), using the method described in Example 4-2. […] However, the activities of the ATP phosphoribosyltransferase variants were less inhibited by L-histidine.

[3] = test system: ATP phosphoribosyltransferase (HisG); assay: as above; assay type: biochemical, Corynebacterium glutamicum; details: for Activity of Enzyme, 0 mM L-histidine: L-histidine 0 mM; for Activity of Enzyme, 50 mM L-histidine: L-histidine 50 mM; for Activity of Enzyme, 100 mM L-histidine: L-histidine 100 mM
Procedure: as §1, §2

[4] = target: T1, ATP phosphoribosyltransferase (HisG); assay: as above; assay type: biochemical; details: L-histidine 50 mM and 100 mM
Procedure: as §1, §2

Molecule	Activity of ATP phosphoribosyltransferase (HisG) [1] [U/mg]	activity fold higher than that of the wild-type enzyme ([1]; relative to wild-type enzyme)	activity in composition solution containing L-histidine (in words) [2]	Activity of Enzyme, 0 mM L-histidine [3] [U/mg]	Activity of Enzyme, 50 mM L-histidine [3] [U/mg]	Activity of Enzyme, 100 mM L-histidine [3] [U/mg]	inhibition of enzyme activity by L-histidine (in words) [4]
B1	2.082	about 160 fold	showed the highest activity	2.082	1.435	1.335	–
B2	0.013	–	–	0.013	0	0	completely inhibited
B3	1.381	–	–	1.381	0.64	0.542	–
B4	1.3	–	–	1.3	0.679	0.413	–
B5	0.021	–	–	0.021	0	0	–
B6	0.408	–	–	0.408	0.157	0	–
B7	0.387	–	–	0.387	0.202	0.023	–
